B1: ARC CARD domain (amino acids 1-95), wild type [human] / itself (parent)
chain: MGNAQERPSETIDRERKRLVETLQADSGLLLDALLARGVLTGPEYEALDALPDAERRVRRLLLLVQGKGEAACQELLRCAQRTAGAPDPAWDWQH

Variants of: B1
Test: SEC-MALS
Conditions: with itself

| Variant | screen value [kDa] |
| --- | --- |
| chain 1 D49R | 13 |
| chain 1 R56E | 13.2 |
| chain 1 D49R R59E | 12.8 |

Results, then the variant that gave them:

| screen value [kDa] | Variant |
| --- | --- |
| 11.8 | chain 1 R56E R59E |
| 12 | chain 1 R59E |

From paper PMC4453921, “Crystal structure of caspase recruiting domain (CARD) of apoptosis repressor with CARD (ARC) and its implication in inhibition of apoptosis” (Scientific Reports, 2015)
